Data from patent US20210102195A1 (TWIST BIOSCIENCE, published 2021).
Residue numbers refer to the chain shown, from its start.

T1: human TIGIT (human, UniProt Q495A1 22-141, limits assumed)
T1 construct: also called hTIGIT
T1 sequence (looked up): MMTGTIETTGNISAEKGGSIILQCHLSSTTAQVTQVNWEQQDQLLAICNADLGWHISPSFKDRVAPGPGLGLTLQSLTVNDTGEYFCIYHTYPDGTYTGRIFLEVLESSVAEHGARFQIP

T2: CRTH2R (UniProt Q9Y5Y4 1-395, limits assumed)
T2 construct: whole, on cells; also called Prostaglandin D2 receptor 2 (DP2 or CRTH2) receptor
T2 sequence (looked up): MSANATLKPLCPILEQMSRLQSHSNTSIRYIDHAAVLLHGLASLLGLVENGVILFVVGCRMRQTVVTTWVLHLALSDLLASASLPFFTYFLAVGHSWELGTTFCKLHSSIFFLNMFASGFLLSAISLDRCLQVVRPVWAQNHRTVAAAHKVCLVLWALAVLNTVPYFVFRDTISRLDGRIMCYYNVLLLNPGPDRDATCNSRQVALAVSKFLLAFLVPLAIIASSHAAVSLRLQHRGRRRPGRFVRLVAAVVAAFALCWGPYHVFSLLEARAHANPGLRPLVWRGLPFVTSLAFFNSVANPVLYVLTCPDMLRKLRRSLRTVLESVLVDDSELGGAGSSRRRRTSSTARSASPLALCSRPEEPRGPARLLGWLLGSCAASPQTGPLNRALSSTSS

B1: TIGIT-55-01 (antibody, V domains shown)
VH: EVQLLESGGGLVQPGGSLRLSCAASGFTFGSYGMSWVRQAPGKGLEWVSSISGSGSTTYYADSVKGRFTISRDNSKNTLYLQMNSLRAEDTAVYYCARVAGSSGWAFDYWGQGTLVTVSS
VL: DIQMTQSPSSLSASVGDRVTITCRASQAISNYLNWYQQKPGKAPKLLIYAASRLQSGVPSRFSGSGSGTDFTLTISSLQPEDFATYYCQESYSTPFTFGGGTKVEIK
notes: hTIGIT IgG
B2: TIGIT-55-02 (antibody, V domains shown)
VH: EVQLLESGGGLVQPGGSLRLSCAASGLTFSNYAMTWVRQAPGKGLEWVSGISRSGGSTYYADSVKGRFTISRDNSKNTLYLQMNSLRAEDTAVYYCATLRLYSSGGGIDYWGQGTLVTVSS
VL: B1 VL with A28Y, N31T, R53S, S56G, E90Q, S91N, S93I, F96L
notes: hTIGIT IgG
B3: TIGIT-55-05 (antibody, V domains shown)
VH: EVQLLESGGGLVQPGGSLRLSCAASGFVFSSYAMNWVRQAPGKGLEWVSTVSGSGGTTYYADSVKGRFTISRDNSKNTLYLQMNSLRAEDTAVYYCARAPYSSSSWFDYWGQGTLVTVSS
VL: DIQMTQSPSSLSASVGDRVTITCRASQSVRSYLNWYQQKPGKAPKLLIYTATSLESGVPSRFSGSGSGTDFTLTISSLQPEDFATYYCQQSYGLPRTFGGGTKVEIK
notes: hTIGIT IgG
B4: CRTH2-74 (antibody)
VH: QVQLVESGGGVVQPGRSLRLSCAASGFSFSEYGIHWVRQAPGKGLEWVAVISYEGSNEYYADSVKGRFTISRDNSKNTLYLQMNSLRAEDTAVYYCARANQHFGPVAGGATPSEEPGSQLTRAELGWDAPPGQESLADELLQLGTEHGYHYYGMDVWGQGTLVTVSS
VL: QSVLTQPPSVSAAPGQKVTISCSGSTSNIGKNYVSWYQQLPGTAPKLLIYDDDERPSGIPDRFSGSMSGTSATLGITGLQTGDEADYYCEAWDADLSGAVFGGGTKLTVL
notes: CRTH2R IgG
B5: CRTH2-19 (antibody, V domains shown)
VH: QVQLVQSGAEVKKPGSSVKVSCKASGGTFSSHAINWVRQAPGQGLEWMGRIIPIVGTTTYAQKFQGRVTITADESTSTAYMELSSLRSEDTAVYYCARDMYYDFDYFGLTLTGDRNDDEVVPADDAFDIWGQGTLVTVSS
VL: QSALTQPASVSGSPGQSITISCTGTSSDVGGYDYVTWYQQHPGKAPKLMIYDVDTRPSGVSNRFSGSKSGNTASLTISGLQAEDEADYYCSSYTTSTSYVFGGGTKLTVL
notes: CRTH2R IgG
B6: CRTH2-45 (antibody)
VH: QVQLVESGGGVVQPGRSLRLSCAASGFTFSHYAMHWVRQAPGKGLEWVADISHEGSNKYYADSVKGRFTISRDNSKNTLYLQMNSLRAEDTAVYYCARDGRGSLPRPKGGPTSGGGFSTNIGYGFVVQSYDSSEDSGGAFDIWGQGTLVTVSS
VL: QSVLTQPPSVSAAPGQKVTISCSGTSSNIENNYVSWYQQLPGTAPKLLIYDNVKRPSGIPDRFSGSKSGTSATLGITGLQTGDEADYYCGTWDNTVSAPWVFGGGTKLTVL
notes: CRTH2R IgG
B7: CRTH2-8 (antibody, V domains shown)
VH: QVQLVQSGAEVKKPGSSVKVSCKASGGTFTDYAISWVRQAPGQGLEWMGGIIPFFGSPNYAQKFQGRVTITADESTSTAYMELSSLRSEDTAVYYCARDMYYDFAAGLEGTITEVFDEEGHQGGTEVVPADDAFDIWGQGTLVTVSS
VL: QSVLTQPPSVSAAPGQKVTISCSGSSSNIGKNYVSWYQQLPGTAPKLLIYDNNQRPSGIPDRFSGSKSGTSATLGITGLQTGDEADYYCGTWDTSLTSVVFGGGTKLTVL
notes: CRTH2R IgG
B8: CRTH2-15 (antibody, V domains shown)
VH: QVQLVQSGAEVKKPGSSVKVSCKASGGTFSTYAIDWVRQAPGQGLEWMGGIIPLFGSPNYAQKFQGRVTITADESTSTAYMELSSLRSEDTAVYYCARANQHFFLYEGTSSSWLHVGHARYGYHYYGMDVWGQGTLVTVSS
VL: B7 VL with S26G, K31S, N53I, Q54R, G90A, T91A, S95R, T97S, S98A, V99G
notes: CRTH2R IgG
B9: CRTH2 39 (antibody, V domains shown)
VH: QVQLVQSGAEVKKPGSSVKVSCKASVDTFSRYSISWVRQAPGQGLEWMGGIIPVFDTTNYAQKFQGRVTITADESTSTAYMELSSLRSEDTAVYYCARDMYYDFGVILGGTAVGTNNGSANEVVPADDAFDIWGQGTLVTVSS
VL: QSVLTQPPSVSAAPGQKVTISCSGSSSNIGDNDVSWYQQLPGTAPKLLIYDDDKRPSGIPDRFSGSKSGTSATLGITGLQTGDEADYYCASWDTSLSGGYVFGGGTKLTVL
B10: CRTH2 35 (antibody, V domains shown)
VH: QVQLVQSGAEVKKPGSSVKVSCKASGGTFRSYAISWVRQAPGQGLEWMGGIIPISGTTNYAQKFQGRVTITADESTSTAYMELSSLRSEDTAVYYCARANQHFTRIFGNYQIYFGHFGYHYYGMDVWGQGTLVTVSS
VL: QSALTQPASVSGSPGQSITISCTGTSSDIGGYEFVSWYQQHPGKAPKLMIYGVSRRPSGVSNRFSGSKSGNTASLTISGLQAEDEADYYCGSYTSSSTPYVFGGGTKLTVL
B11: CRTH2 66 (antibody)
heavy chain (variable domain given): QVQLVESGGGVVQPGRSLRLSCAASGFDFSGYGMHWVRQAPGKGLEWVAVISYEGSNKFYADSVKGRFTISRDNSKNTLYLQMNSLRAEDTAVYYCARDLRELECEEWTIEVHGQEFAVHQDRGGVFSRGPCVDPRGVAGSFDVWGQGTLVTVSS
light chain (variable domain given): EIVMTQSPATLSVSPGERATLSCRASQGVGSNLAWYQQKPGQAPRLLIYRTSIRATGIPARFSGSGSGTEFTLTISSLQSEDFAVYYCQQYYSWPPLTFGGGTKVEIK
B12: CRTH2 57 (antibody, V domains shown)
VH: QVQLVQSGAEVKKPGSSVKVSCKASGGTFSSYAMSWVRQAPGQGLEWMGGIIPLFGTTDYAQKFQGRVTITADESTSTAYMELSSLRSEDTAVYYCARANQHFVKIQGAPVSTPVPGFGTTGYHYYGMDVWGQGTLVTVSS
VL: B7 VL with G30E, K31D, N53F, Q54K, T97S, S98A, V99A, V100L
B13: CRTH2-60 (antibody, V domains shown)
VH: QVQLVQSGAEVKKPGSSVKVSCKASGGTFKNYAINWVRQAPGQGLEWMGAIIPKFGAANYAQKFQGRVTITADESTSTAYMELSSLRSEDTAVYYCARANQHFSAVRGLAFGYGYRIGGYHYYGMDVWGQGTLVTVSS
VL: B7 VL with S26T, K31I, D51E, N53R, Q54K, G90A, T94A, T97K, S98N, V99L
B14: CRTH2-70 (antibody, V domains shown)
VH: QVQLVQSGAEVKKPGSSVKVSCKASGGTFSNHAIIWVRQAPGQGLEWMGGIIPIFGTPSYAQKFQGRVTITADESTSTAYMELSSLRSEDTAVYYCARDMYYDFDVISAGVVGAGNPEVVPADDAFDIWGQGTLVTVSS
VL: QSVLTQPPSVSAAPGQKVTISCSGSTSNIGNNFVSWYQQLPGTAPKLLIYDNEKRPSGIPDRFSGSKSGTSATLGITGLQTGDEADYYCGTWDERQTDESYVFGGGTKLTVL
B15: CRTH2-42 (antibody)
VH: QVQLVESGGGVVQPGRSLRLSCAASGFAFSSYAMHWVRQAPGKGLEWVAVISYEGSNEYYADSVKGRFTISRDNSKNTLYLQMNSLRAEDTAVYYCARDLRELECEEWTVLQYGKFHMRWAESGEGSLSRGPCVDPRGVAGSFDVWGQGTLVTVSS
VL: B10 VL with I29V, E33R, F34Y, G52N, S54N, R55Y, G91S, T94R, P99L, Y100G
B16: CRTH2-24 (antibody, V domains shown)
VH: QVQLVQSGAEVKKPGSSVKVSCKASGGSFSNYGISWVRQAPGQGLEWMGGIIPLIGTANYAQKFQGRVTITADESTSTAYMELSSLRSEDTAVYYCARDMYYDFTLGPQSIGPLGEVVPADDAFDIWGQGTLVTVSS
VL: QSVLTQPPSVSAAPGQKVTISCSGSSSNIGNNFVSWYQQLPGTAPKLLIYDNIQRPSGIPDRFSGSKSGTSATLGITGLQTGDEADYYCGTWDTSLSAVVFGGGTKLTVLR
B17: CRTH2-28 (antibody, V domains shown)
VH: QVQLVQSGAEVKKPGSSVNVSCKASGGTFSDYAFSWVRQAPGQGLEWMGAIIPFFGTVNYAQKFQGRVTITADESTSTAYMELSSLRSEDTAVYYCARDMYYDFATGTGGPEDDLYPQGELNDGYRIEVVPADDAFDIWGQGTLVTVSS
VL: B4 VL with T26I, D53H, E54K, M67K, E90A, A91T, A94R, D95G, G98A

Each binder was assayed against T1, human TIGIT (assay: monovalent affinity of the hTIGIT IgGs; method not named in Example 14).

Binder | Kd [nM]
B1 | 15.9
B2 | 141
B3 | 97.6

The binders below were run against T2, CRTH2R (assay: flow cytometry (MFI), CHO CRTH2R-positive cells against parental CHO cells, 3-fold titration from 100 nM; grey = CRTH2R cells, black = parental cells (no legend on the panel)).
Procedure: Cell binding of anti-CRTH2R antibodies was determined by testing on CHO CRTH2R-positive cells (GFP+) and parental CHO cells (GFP−), comparing parental negative and target positive cells to rule out false-positives. Antibodies as listed in Table 14A were titrated starting at 100 nM (15 ug/mL) with 3-fold titrations, for a total of 8 points. Two antibodies (gPCR-51 and gPCR-52) were used as a positive control.

Binder | EC50 [nM]
B4 | 8.61
B5 | 16.7
B6 | 23.2
B7 | 135
B8 | 73.8
B9 | 19
B10 | 12.6
B11 | 3.95
B12 | 158

These binders were tested against T2, CRTH2R (assay: cell-based or functional assay).

Binder | antagonist activity in PGD2-induced cAMP assay at 33 nM IgG [%] | IC50 fold difference of the PGD2 dose response (cAMP) with 100 nM IgG [fold]
B4 | > 20 | 
B13 | > 20 | 
B14 | > 20 | 
B15 | > 20 | > 2
B16 | > 20 | 
B17 | > 20 | 
B5 | > 20 | 
B6 | > 20 | 
B7 | > 20 | 
B8 | > 20 | 
